According to IntAct's records for PubMed 17462627:

B1: Emerin (Homo sapiens), P50402 (parent)
chain: MDNYADLSDTELTTLLRRYNIPHGPVVGSTRRLYEKKIFEYETQRRRLSPPSSSAASSYSFSDLNSTRGDADMYDLPKKEDALLYQSKGYNDDYYEESYFTTRTYGEPESAGPSRAVRQSVTSFPDADAFHHQVHDDDLLSSSEEECKDRERPMYGRDSAYQSITHYRPVSASRSSLDLSYYPTSSSTSFMSSSSSSSSWLTRRAIRPENRAPGAGLGQDRQVPLWGQLLLFLVFVIVLFFIYHFMQAEEGNPF

Experiments:
[1] = variants of: B1; conditions: with SYNE1, Q8NF91-3
[2] = variants of: B1; conditions: with SYNE2, Q8WXH0-3
Sequence of SYNE2, Q8WXH0-3 (Q8WXH0 6031-6885): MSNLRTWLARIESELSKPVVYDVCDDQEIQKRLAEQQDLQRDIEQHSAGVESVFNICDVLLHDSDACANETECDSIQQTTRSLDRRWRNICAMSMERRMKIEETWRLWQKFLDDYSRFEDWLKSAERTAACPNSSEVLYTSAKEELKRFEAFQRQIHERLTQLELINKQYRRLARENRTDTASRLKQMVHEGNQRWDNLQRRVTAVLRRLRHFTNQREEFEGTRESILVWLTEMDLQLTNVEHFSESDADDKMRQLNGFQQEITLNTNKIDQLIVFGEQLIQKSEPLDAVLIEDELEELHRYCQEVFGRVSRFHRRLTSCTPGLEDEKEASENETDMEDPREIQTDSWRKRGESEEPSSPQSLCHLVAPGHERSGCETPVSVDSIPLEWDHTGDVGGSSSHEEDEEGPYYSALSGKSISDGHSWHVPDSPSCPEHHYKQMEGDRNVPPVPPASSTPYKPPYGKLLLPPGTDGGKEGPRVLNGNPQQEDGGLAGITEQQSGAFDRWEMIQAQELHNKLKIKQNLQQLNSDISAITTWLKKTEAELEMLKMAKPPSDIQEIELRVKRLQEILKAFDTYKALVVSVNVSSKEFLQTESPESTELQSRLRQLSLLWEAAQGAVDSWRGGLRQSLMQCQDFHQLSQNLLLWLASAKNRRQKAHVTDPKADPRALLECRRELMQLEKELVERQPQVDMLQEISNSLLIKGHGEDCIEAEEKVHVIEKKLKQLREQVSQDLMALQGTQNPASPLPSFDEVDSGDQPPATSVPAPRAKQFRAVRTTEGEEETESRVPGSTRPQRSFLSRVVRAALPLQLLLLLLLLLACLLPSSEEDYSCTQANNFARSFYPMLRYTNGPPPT

Sequence of SYNE1, Q8NF91-3 (Q8NF91 other isoform, or with tags, fused parts or gaps): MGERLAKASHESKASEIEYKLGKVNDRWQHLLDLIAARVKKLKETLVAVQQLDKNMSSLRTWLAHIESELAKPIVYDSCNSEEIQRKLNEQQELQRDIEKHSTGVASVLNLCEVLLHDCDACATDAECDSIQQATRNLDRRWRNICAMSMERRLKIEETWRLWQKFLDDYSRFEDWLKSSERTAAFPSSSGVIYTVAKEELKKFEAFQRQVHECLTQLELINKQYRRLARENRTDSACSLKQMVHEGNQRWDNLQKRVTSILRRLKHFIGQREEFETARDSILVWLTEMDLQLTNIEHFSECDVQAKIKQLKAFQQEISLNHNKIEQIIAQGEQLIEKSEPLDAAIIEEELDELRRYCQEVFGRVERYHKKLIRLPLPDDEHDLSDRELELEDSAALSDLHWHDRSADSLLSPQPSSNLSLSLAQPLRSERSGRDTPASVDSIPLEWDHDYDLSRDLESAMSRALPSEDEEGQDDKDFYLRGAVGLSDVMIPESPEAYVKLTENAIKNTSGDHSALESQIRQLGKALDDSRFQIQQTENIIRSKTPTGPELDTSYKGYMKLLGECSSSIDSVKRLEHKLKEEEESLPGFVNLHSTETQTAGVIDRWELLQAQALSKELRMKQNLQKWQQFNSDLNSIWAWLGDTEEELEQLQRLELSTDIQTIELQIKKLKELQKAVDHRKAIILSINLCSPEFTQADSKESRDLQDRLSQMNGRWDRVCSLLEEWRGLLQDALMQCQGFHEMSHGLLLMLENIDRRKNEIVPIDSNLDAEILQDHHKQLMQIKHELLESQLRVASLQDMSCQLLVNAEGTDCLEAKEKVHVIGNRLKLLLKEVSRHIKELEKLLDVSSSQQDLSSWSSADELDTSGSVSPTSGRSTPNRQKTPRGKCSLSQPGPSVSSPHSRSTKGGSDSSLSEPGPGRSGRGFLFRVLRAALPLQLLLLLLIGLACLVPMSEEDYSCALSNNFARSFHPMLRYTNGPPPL

Variant | effect of a mutation on the interaction [1] | effect of a mutation on the interaction [2]
P183T | decreasing interaction strength | increasing interaction strength
P183H | increasing interaction strength | increasing interaction strength
Q133H | increasing interaction strength | –
